Test results: article PMC4323627 (Journal of molecular biology, 2014)
One block for each binder: values may come before it.

Key:
crystal structure = target: the molecule itself; experiment: crystal structure
[1] = target: T1, human Shq1 CS domain without 6XHis-tag (hCS) (human, UniProt Q6PI26 1-96, uniformly 15N-labelled); experiment: NMR titration
T1 sequence (looked up): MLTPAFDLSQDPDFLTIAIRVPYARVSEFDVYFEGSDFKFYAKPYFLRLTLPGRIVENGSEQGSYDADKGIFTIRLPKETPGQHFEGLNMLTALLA

B1: human Shq1 CS domain P22S with N-terminal 6XHis-tag (his-hCS(P22S)) (domain or fragment)
chain: MAHHHHHHVDDDDKMLTPAFDLSQDPDFLTIAIRVSYARVSEFDVYFEGSDFKFYAKPYFLRLTLPGRIVENGSEQGSYDADKGIFTIRLPKETPGQHFEGLNMLTALLA
binding result (crystal structure): binds

Kd [1]: > 500 µM
Binder: LNVRTTHYTPLA [Dys2S peptide (dyskerin residues 62-73)]
